Experimental data: the DeepSol protein solubility set

Test: soluble on expression in E. coli; label from the status in PepcDB or PDB records

**Q.** Which “soluble on expression in E. coli” value does the source give for “MIKLSNITKVFQQGTRTIQALNNVSLHVPAGQIYGVIGASGAGKSTLIRCVNLLERPTEGSVQVGGQELTTLSESELTKARRQIGMIFQHFNLLSSRTVFGNVALPLELDNTPKEEIKRRVTELLDLVGLGDKHDSYPANLSGGQKQRVAIARALASNPKVLLCDEATSALDPATTRSILELLKDINRRLGLTILLITHEMDVVKRICDCVAVISNGELIEQDTVSEVFSHPKTPLAQKFIQSTLHLDIPEDYQARLKASPETDSVPMLRMEFTGQSVDAPLLSETARRFNVNNNIISAQMDYAGGVKFGIMLTEMHGTQEETQAAIAWLQDHHVKVEVLGYV” here?
**A.** not soluble

**Q.** For “MIKLIATIIVSTLILGSCSTMKDEIEKVPASQYKGQDFQPLAEKSAIAHAKKYREEYEKLGEQFFKDNFSLNVKATNVVGSGDGAEVYVHCDDHDIVFNASIPFDMESIHEEGSMRSNDNGDTMSMMVGTVLSGFEYRANKEKMDNLEKYLKDKEDKYHYTGFTDEAITKTQNIGYQNNYFYITTSSTKLRDYRKHFEPLIKESDDDFKKHMKQLKSKKDTYINTEITTTLFSTLDEYDEKIIRKNTLSMAKEMRKEPSIPHNFTFHLLFSNNKLKINDPNISNNQINEYRVFDHDGFKNLEHHHHHH”, which “soluble on expression in E. coli” value is on record?
**A.** not soluble

**Q.** Which “soluble on expression in E. coli” value does the source give for “MMTESHGYLSNNLPVKIINDIIYATQLVEDLVLGKIKIVDFLKSYNNFYCWLGFDELPQSEKIKFLSYLNILSIHKEIQDETVNRVYTD” here?
**A.** not soluble

**Q.** Which “soluble on expression in E. coli” value does the source give for “MAHHHHHHMDVKLGTIISRFTFTLPSLYDDGRDDYDATVSSPDDAATEESCGVAFTSGTHCDEARKTPKTTQAGSRSHVARFGAPASPTEKLDITGAYAFVSHGGAASSASLAAPSSPPPLLGRAAARGDRNNSTVAAPQHDVGDRGGGAVRYGTSLHLPDLVQLAAHAWNVELHCGSTGAASHCVLRLPPFVLGSTLYRGPVVYVLASGVVRMATHGSVAATELLARRVRDALHEACKPLAVRRAAREELLLMRAVLEDSLSDMLEDEGGEEGPARHLCTAVLKAEARLPSSGVSLSTALAADTAMSSQHGRRAAFGSSAAAARIGPMARDKAGHGLPTLVSTPSVLSARGCKIDFLQAVATPRWDEIVGLRASLFAPASAAPGSENSGGGGVAKADRDAEGAPRVSVRRASVNVRGDAPMEWWRWYLGVQADDHGVGGGDGSGAARRGGGAPSAAAANSEEPFPGDCSGVPLLGSWLSGDASEGGNADARSSNKTTGFWTCAGYADASPENAASFVHFLQRRRALLAHHVASFKLRRQATQNSLQILLDWRTATPPTPPAPPAPLSAAAAPLMGRPPLARALVGHPMAVAQPLPDSGTPSVPAAPTRTNISGNTWVTEASAANFFMESTFIAESAAPFELESVRMPTDRMSSADPALPVSMALGDRNVANPCGSTALAPDSGCGSMSALLEPSVGHSVLRYDSSSSKDDRTAAKAAPEKRMRGVAAAQASAANRDEAASAAMEHVTCLIHRTGRVQMTAASELALRQMCAMLLIPFLVATAEVEL” here?
**A.** not soluble

**Q.** With “MGSDKIHHHHHHVPKNKDSKNNSIPRRRFGRTEIQIPVLSLGGMRFQQSWKDLDPKEINNQQQEILQKTISYAAQKGMHHIETARHYGTSERQIGWAFDQIDDPKRILQTKVPPNNDPSIFEQELELSMSRLGSKKIDLLAIHGINLPEHLDMTIRPNGCLQIVRRWQKDGLIGHVGFSTHANVDLIIKTIETGFFDYVNLHWYFIRQENEKALQAADANDLGVFIISPTDKGGHLHTPSLKLLDLCSPLHPIEFNDLFCLRDKRIHTLSVGASSPEDLDIHLSAISKMDTMHGVINTIEKRLINASYKSLGESWLTTWNIGLPRWDQTPGEINIPTLLWLNNLLEAWDMESFVKDRYGLLGRGGHWFPGANADCLDCEVSEDDLKKVLINSPWSSEIPSVLRKLKDRLGGERRDRLWGI” as the sequence, how does the “soluble on expression in E. coli” value read?
**A.** not soluble

**Q.** For “MAHHHHHHMLQRLSHRSVLGYHGAPQVAALRCSLRFGTNIGGSYYQESDTAGTHQMNNDIRLGLVIKPQSTLVELWEQALKAWPTRRFLGSKMWVRGKLGYVWATYESINTEVEAMRTLLHSMGVEKGSRVVVISENRYEWVVVHFATMQLGAHFVALPTNVTPSEAQLVVKSTQSKVLFVETKASYAAIKGWIGRVGQLEHAICFEDQVGEGSYAVAISIAADVPEKTLARTDVRAEDTAMIVFTAGTTGPPKGVMLSHKSIVANVSSVYASLGEALTHSDMFMSLCSWCVAGALTTDLYQALCKGACVCIPPEILEGFQDLPLVNPSVIVSVAQPFQRAYANIVDDILNRRSFTKDLTRFVVGRITENRLMFKKPGRTLQAFSHALLGKFKAQFGSELRVAIIIGHQLTKDQSELMADLDVFVVNTYGFMEAGGLVATDVDVPQRLKALPGLEVRVVNEKNEIVAPGDLGEILIEAPNAMQGYFDVHIDPEEAKNSLVEYGSRTFVRSGDYGTLTGGWITVKGNKDVLITLANSKTVNPLEVEAALTKSPFIKQVFIYGNRHPYVVALVVANTKAIAAHLRKVERRDGVPLVNDREKADCIRAELRRVSQDLPPRAHVRRFAFVDEFTLANGFMTVKMGYARQKIEDHYVHYFEALYDETPKFYGFAVDDYDDLF”, which “soluble on expression in E. coli” value is on record?
**A.** soluble

**Q.** Which “soluble on expression in E. coli” value does the source give for “MKEELIERFTRYVKIDTQSNEDSHTVPTTPGQIEFGKLLVEELKEVGLTEVTMDDNGYVMATLPANTDKDVPVIGFLAHLDTATDFTGKNVKPQIHENFDGNAITLNEELNIVLTPEQFPELPSYKGHTIITTDGTTLLGADDKAGLTEIMVAMNYLIHNPQIKHGKIRVAFTPDEEIGRGPAHFDVEAFGASFAYMMDGGPLGGLEYESFNAAGAKLTFNGTNTHPGTAKNKMRNATKLAMEFNGHLPVEEAPEYTEGYEGFYHLLSLNGDVEQSKAYYIIRDFDRKNFEARKNTIENIVKQMQEKYGQDAVVLEMNDQYYNMLEKIEPVREIVDIAYEAMKSLNIEPNIHPIRGGTDGSQLSYMGLPTPNIFTGGENYHGKFEYVSVDVMEKAVQVIIEIARRFEEQA” here?
**A.** not soluble

**Q.** With “GSLYKMSSINADFAFNLYRRFTVETPDKNIFFSPVSISAALVMLSFGACCSTQTEIVETLGFNLTDTPMVEIQHGFQHLICSLNFPKKELELQIGNALFIGKHLKPLAKFLNDVKTLYETEVFSTDFSNISAAKQEINSHVEMQTKGKVVGLIQDLKPNTIMVLVNYIHFKAQWANPFDPSKTEDSSSFLIDKTTTVQVPMMHQMEQYYHLVDMELNCTVLQMDYSKNALALFVLPKEGQMESVEAAMSSKTLKKWNRLLQKGWVDLFVPKFSISATYDLGATLLKMGIQHAYSENADFSGLTEDNGLKLSNAAHKAVLHIGEKGTEAAAVPEVELSDQPENTFLHPIIQIDRSFMLLILERSTRSILFLGKVVNPTEA” as the sequence, how does the “soluble on expression in E. coli” value read?
**A.** soluble

**Q.** Which “soluble on expression in E. coli” value does the source give for “MGSSHHHHHHSSGLVPRGSHMDFYKLDEKLKELKRKRVDVSIKSRKLADREIQEVSANRKPRVYSMEDVNDADESVGDTESPEKEKAFHYTVQEYDAWERRHPQGKTGQSQRGGISYDQLAKLSYEKTLRNLATQTQNSSKQDSSADEEDNKNVPKKGRIGKVQKDTKTGKITIADDDKLVNKLAVSLQSESKKRYEARKRQMQNAKTLYGVESFINDKNKQFNEKLSRESKGSE” here?
**A.** soluble

**Q.** Which “soluble on expression in E. coli” value does the source give for “MGSDKIHHHHHHMALGHRVKEAREFRSLKQGELAELIGWTQQALSTLENRDSKKSSYSAQISKALDIDIDWLISGAGEMINTKKEAKSAKKLIKYVPVKGSAQMGDNGFWSELDYMGAGGDGYLEVNNASDSAYVIRAVGDSMFPAIRSGWYIVFDPSREACSGEYVHIVLKDGRNMVKEYVSCQHGIVNLISVNGMERISFNCEDVDVLNPFVEIQPPSRLRDDLDLFDTKCEEM” here?
**A.** not soluble

**Q.** For “MSLGIGKEAEVKKSFEKTLSMYPIKNLEDLYDKEGYRDDQFDKNDKGTWIINSEMVIQPNNEDMVAKGMVLYMNRNTKTTNGYYYVDVTKDEDEGKPHDNEKRYPVKMVDNKIIPTKEIKDKNIKKEIENFKFFVQYGNFKDLSKYKDGDISYNPEVPSYSAKYQVTNDDYNVKQLRKRYDIPTNKAPKLLLKGTGNLKGSSVGYKDIEFTFVEKKGENIYFSDSLHLEPSEDKEGHHHHHH”, which “soluble on expression in E. coli” value is on record?
**A.** soluble

**Q.** Which “soluble on expression in E. coli” value does the source give for “MGSDKIHHHHHHMRLHSPSMSELHAFVAAARLGSFTRAADTLCVTQGAISRAIARLEEHFGQPLIQRNAHRLTLTGAGQQLLDAVAGPLAAIEHASAALRAGDRSHHLTLSAVPTLASVWLVPRLPDFHRRHPDIRLDFVPYRRDEDFSGAAPDAALLAGEPGKWPGLQVDYVVGREMVPVCHPDRARQRHAAGRWREPAELMDEPLLYHTTAPANWANWLQAAGVPNAAPKLSSGFDQVSILVQAVRADMGIAVLQRCLLHDELAAGRVVAPFDLPIRLQRGYFLCSPRERRDHHALRCFREWLLETAAQDSGT” here?
**A.** not soluble
